Results reported in US20070041944A1, “Treating tumors by ENH dislocation of ID proteins” (THE TRUSTEES OF COLUMBIA UNIVERSITY IN THE CITY OF NEW YORK, priority 2005, published 2007).

Legend:
[1] = system: Id2 inhibition of E47-mediated transcription; experiment: E-box-luciferase reporter assay; type: cell-based, human; details: E-box-luc with E47, Id2 and increasing amounts of ENH (0.375, 0.5, 0.625 μg); FIG. 6A
Description: Luciferase Assay: The luciferase reporter construct 5xE-box-luciferase (Lasorella, A. et al., (1996) Mol. Cell. Biol., 16:2570-2578) was cotransfected with pcDNA.3-E47 and pcDNA.3 vector or pcDNA.3-Id2 and pcDNA.3-ENH into SK-N-SH cells. pCMV-β-gal was cotransfected for normalization. Twenty-four hours later luciferase and β-galactosidase activities were measured as described (Lasorella, A. et al., (2000) Nature, 407:592-598).
To test the hypothesis that ENH restrains the inhibitory effects of Id2 on bHLH-mediated transcription by acting as a cytoplasmic retention factor for Id2, luciferase reporter assays were performed with five multimerized E-boxes driving expression of luciferase (E-box-luc). The E-box-luc plasmid was transfected in the presence of mammalian expression vectors for the ubiquitously expressed bHLH protein E47, Id2, and increasing amounts of ENH. Id2 inhibition of E47-mediated transcription was relieved by coexpression of ENH in a dose-dependent manner (FIG. 6A).

[2] = target: T1, Id2 (Homo sapiens, UniProt Q02363); experiment: Coimmunoprecipitation of Id2 and Flag-tagged ENH in transfected Cos-1 cells; type: binding; details: Cos-1 cells transfected with Id2 and Flag-tagged ENH
T1 construct: expressed in transfected cells; host or cells: Cos-1
T1 sequence (Q02363 1-134): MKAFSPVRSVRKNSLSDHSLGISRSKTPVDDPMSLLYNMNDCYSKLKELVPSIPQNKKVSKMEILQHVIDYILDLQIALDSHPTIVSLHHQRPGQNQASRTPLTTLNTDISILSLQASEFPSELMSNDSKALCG
Description: (§1) GST Pull-Down Assay, Western Blot, and Coimmunoprecipitation: GST fusion proteins were purified from BL21 Star (Invitrogen). GST pull-down assay was performed as described in lavarone, A. et al., (1994), Genes Dev., 8:1270-1284. For Wetern blot analysis, cellular pellets were lysed in ice-cold RIPA buffer (50 mM Tris, pH 7.5/150 mM NaCl/1% Nonidet P-40/0.5% sodium deoxycholate/0.1% SDS) containing Complete Mini protease inhibitor pellet (Roche) and 1 mM PMSF. Lysates were electrophoresed on SDS/PAGE gels and transferred to nitrocellulose membrane (Amersham Pharmacia Biotech). Membranes were stained with antibodies against ENH, Id2 (Santa Cruz Biotechnology), and α-tubulin (Sigma), and blots were developed by using ECLWestem Blotting Detection System (Amersham Pharmacia Biotech). The anti-ENH antibody is a rabbit polyclonal that was produced in collaboration with Zymed against a peptide that is fully conserved in the mouse sequence (KQQNGPPRKHI (SEQ ID NO:1)). Coimmunoprecipitation of Id2 and ENH from cells transfected with pcDNA.3-Id2 and p3XFlag-ENH was performed as described (lavarone, A. et al., (2004), Nature, 432:1040-1045).
To determine whether Id2 binds ENH in vivo, coimmunoprecipitation experiments were performed after transfecting Id2 and Flag-tagged ENH in Cos-1. Anti-Id2 antibodies precipitated full-length Flag-ENH but not Flag-ENHδLIM (FIG. 2C). […]

[3] = system: IMR-32 neuroblastoma cell line; experiment: Colony-forming assay; type: cell-based, human; details: transfected with pcDNA3-ENH, G418 selection 14 days
Source text: (§2) Cell Culture, Colony-Forming Assay, and Transfection: Neuroblastoma cell lines SK-N-SH, IMR-32, and LAN-1, the glioma cell lines SF188, and COS-1 cells were maintained in 10% FBS (Sigma) in DMEM (Cambrex). For colony-forming assay cells were transfected with pcDNA3-ENH or vector control. Cells were selected in G418 for 14 days, and colonies were scored in triplicate cultures. Cells were transfected by using Lipofectamine 2000 according to the manufacturer's instructions.
(§3) A well known function of Id2 is the ability to enhance cell proliferation by promoting the transition from G1 to S phase of the cell cycle. Therefore, it was asked whether ENH inhibited cell proliferation and opposed Id2-mediated entry into S phase. […] Next SK-N-SH was transfected with ENH and Id2 in the presence of a GFP expression plasmid and measured the rate of DNA synthesis by incorporation of BrdU of the successfully transfected, GFP-positive cells.

[4] = system: SK-N-SH neuroblastoma cell line; experiment: Colony-forming assay; type: cell-based, human; details: transfected with pcDNA3-ENH, G418 selection 14 days
Source text: as §2, §3

[5] = system: SF188 glioma cell line; experiment: Colony-forming assay; type: cell-based, human; details: transfected with pcDNA3-ENH, G418 selection 14 days
Source text: as §2, §3

[6] = system: GST-δHLHId2; experiment: GST pull-down assay with GST-Id2 lacking the HLH domain; type: binding; details: in vitro-translated 35S-labeled ENH (FIG. 2B Right)
Description: as §1
To validate the specificity of the binding between ENH and Id2 and identify the domains that mediate this interaction, GST fusion proteins and in vitro-translated proteins in pull-down assays.

Id2 inhibition of E47-mediated transcription (luciferase activity) [1]: relieved
precipitation by anti-Id2 antibodies ([2]; Western blot for Flag (FIG. 2C)): precipitated
Id2 in Flag immunoprecipitates ([2]; Western blot for Id2 (FIG. 2D)): contained Id2
binding of GST-δHLHId2 to ENH [6]: failed to bind
B1: ENH: actin cytoskeleton-associated PDZ-LIM protein ENH (Enigma Homologue), full-length, SEQ ID NO:4; also used Flag-tagged (protein, listed as Homo sapiens)
chain: MSNYSVSLVGPAPWGFRLQGGKDFNMPLTISSLKDGGKAAQANVRIGDVVLSIDGINAQGMTHLEAQNKIKGCTGSLNMTLQRASAAPKPEPVPVQKGEPKEVVKPVPITSPAVSKVTSTNNMAYNKAPRPFGSVSSPKVTSIPSPSSAFTPAHATTSSHASPSPVAAVTPPLFAASGLHANANLSADQSPSALSAGKTAVNVPRQPTVTSVCSETSQELAEGQRRGSQGDSKQQNGPPRKHIVERYTEFYHVPTHSDASKKRLIEDTEDWRPRTGTTQSRSFRILAQITGTEHLKESEADNTKKANNSQEPSPQLASSVASTRSMPESLDSPTSGRPGVTSLTTAAAFKPVGSTGVIKSPSWQRPNQGVPSTGRISNSATYSGSVAPANSALGQTQPSDQDTLVQRAEHIPAGKRTPMCAHCNQVIRGPFLVALGKSWHPEEFNCAHCKNTMAYIGFVEEKGALYCELCYEKFFAPECGRCQRKILGEVINALKQTWHVSCFVCVACGKPIRNNVFHLEDGEPYCETDYYALFGTICHGCEFPIEAGDMFLEALGYTWHDTCFVCSVCCESLEGQTFFSKKDKPLCKKHAHSVNF
colony formation [3]: markedly inhibited
colony formation [4]: markedly inhibited
colony formation [5]: markedly inhibited
